Seven molecules from patent publication US5374506A, “Amino acid sequence for a functional human interleukin-8 receptor” (The United States of America as represented by the …, priority 1991, dated 1994) can be followed below.

The term EC50 denotes the concentration that produces a half-maximal response. One may read the Kd as a measure of binding affinity in units of concentration.

Experiment [1] deals with T1, human IL-8 receptor (Homo sapiens, UniProt P25025).
T1 construct: expressed in transfected cells; host or cells: Xenopus oocytes injected with p2 cRNA
T1 sequence (P25025 6-360): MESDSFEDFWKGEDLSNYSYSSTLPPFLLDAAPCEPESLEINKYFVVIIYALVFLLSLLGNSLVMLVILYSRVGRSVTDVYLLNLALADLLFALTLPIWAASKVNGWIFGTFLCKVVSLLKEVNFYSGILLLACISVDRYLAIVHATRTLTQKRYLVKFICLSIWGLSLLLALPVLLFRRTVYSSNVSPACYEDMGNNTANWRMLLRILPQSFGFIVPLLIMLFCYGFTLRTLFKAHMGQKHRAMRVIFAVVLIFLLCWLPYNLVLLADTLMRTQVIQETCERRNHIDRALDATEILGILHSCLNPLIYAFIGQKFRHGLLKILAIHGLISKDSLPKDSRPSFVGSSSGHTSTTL
As to the kind of experiment: calcium efflux assay in Xenopus oocytes injected with p2 cRNA. The format is cell-based. The following applies: for calcium mobilization / activation of the IL-8 receptor (result in words): FIG. 2C; for rank order of potency for activating calcium flux: IL-8 receptor expressed by Xenopus oocytes, FIG. 2(C). Here is the method:
(§1) The materials and methods used for the calcium efflux assay were as described in P. M. Murphy, E. K. Gallin, H. L. Tiffany, J. Immunol. […] Oocytes were microinjected with RNA samples in a total volume of 50 nl per oocyte 3 days after harvesting and were then incubated at 20° to 23° C. for 2 to 4 days. Oocytes were then incubated with ^45 Ca^2+ [50 μCi/ml (ICN Biomedicals, Costa Mesa, Calif.)] for 3 hours. After ten washes with medium, individual oocytes were stimulated with ligand in wells of a 96-well tissue culture plate containing 100 μl of medium. Three 100 μl samples of the incubation medium were collected and analyzed by liquid scintillation counting: a) the final 100 μl wash (20 min) before application of ligand; b) fluid containing the stimulus, removed after a 20 min incubation with the oocyte; and c) the oocyte solubilized in SDS (1%) in medium 20 min after stimulation. Data are presented as the mean±standard error of the mean (SEM) of the percent of loaded ^45 Ca^2+ that was released by individual oocytes in response to the stimulus, or [(b-a).div.(b+c)]×100. FMLP and recombinant human C5a was from Sigma, St. Louis, Mo. Recombinant human IL-8 was from Genzyme, Boston, Mass. Recombinant human NAP-2 was from Bachem, Philadelphia, Pa.
Background: A change in cytosolic calcium serves as a functional read-out for many receptors and channels.

Experiment [2] concerns oocytes injected with 50 ng of HL60 neutrophil RNA. As to the kind of experiment: calcium efflux assay in oocytes injected with HL60 neutrophil RNA. The format is cell-based, Xenopus. To be noted: oocytes injected with 50 ng HL60 neutrophil RNA. On the procedure:
as §1

Experiment [3] concerns receptor encoded by p2. Description: binding of 125I-labeled IL-8 and gro to COS cells transiently transfected with pCDNAI-p2. Set-up: species or system human. To be noted: receptor encoded by p2 expressed in COS cells. Here is the method:
To further support the data obtained from the oocyte studies, the p2 cDNA was also cloned into the vector pCDNAI. When COS cells are transiently transfected with the pCDNAI-p2 construct, specific binding sites were detected with ^125 I-labeled IL-8 and gro protein. In contrast to the ligand binding affinity in the oocyte environment, the affinity for the ligand when the receptor encoded by p2 was expressed in the COS cell was higher. Specifically, the kd for IL-8 was 2 nM and the kd for gro was 1.3 nM.

For experiment [4], the target named is human interleukin-8 receptor encoded by cDNA clone p2 (human).
In experiment [5] the target is T1, human IL-8 receptor. As to the kind of experiment: binding of [125I]-IL-8 to oocytes injected with p2 cRNA. The following applies: 1 μM competitor. Here is the method:
Total ( ) and non-specific binding (.largecircle.) was determined by incubating oocytes injected with p2 cRNA with the indicated concentration of radioligand in the absence or presence of unlabeled IL-8 (1 μM), respectively. The data shown are the mean±SEM of triplicate determinations per point and are representative of two separate experiments. Nonspecific binding was subtracted from total binding to determine specific binding (.quadrature.). […] Specific binding of [^125 I]-IL-8 by oocytes injected with water was undetectable.
IL-8 was iodinated to a specific activity of 260 Ci/mmole as described in H. L. Malech, J. P. Gardner, D. F. Heiman, S. A. Rosenzweig, J. Biol. Chem. 260, 2509 (1985). The radioligand was qualified by binding to human neutrophils. Single oocytes were incubated with [^125 I]-IL-8 for 30 min on ice in 10 μl binding buffer (Hanks balanced salt solution with 25 mM HEPES, 1% bovine serum albumin, pH 7.4). Unbound ligand was removed by pelleting the oocyte through 300 μl F50 silicone fluid (General Electric, Waterford, N.Y.). The tube was quick-frozen and gamma emissions from the amputated tips were counted.

The target of experiment [6] is recombinant human C5a (human, UniProt P01031). Description: displacement of [125I]-IL-8 from Xenopus oocytes injected with p2 cRNA. A general note: Displacement assays read how much labelled ligand stays bound in the presence of the test substance.
Experiment [7] deals with gro (melanoma growth-stimulatory activity) (Homo sapiens (Human), UniProt P09341, 125I label in the COS cell binding experiment). As to the kind of experiment: binding of 125I-labeled gro to COS cells transiently transfected with pCDNAI-p2.
For experiment [8], the target named is recombinant human IL-8 (human, UniProt P10145, 125I label in the binding experiments). Description: binding of 125I-labeled IL-8 to COS cells transiently transfected with pCDNAI-p2.
[9] abbreviates: Xenopus oocytes injected with p2 cRNA.

As to `CSCC[C@H](NC=O)C(=O)N[C@@H](CC(C)C)C(=O)N[C@@H](Cc1ccccc1)C(=O)O` [FMLP, N-formyl methionyl-leucylphenylalanine, reference compound], in experiment [1] (setting [9]), the “calcium mobilization / activation of the IL-8 receptor (result in words)” value is “did not respond”. Also, the “calcium efflux response (percent of loaded 45Ca2+ released)” value in experiment [2] (1 μM ligand) was found to be 51±3%.
Regarding “IL-8: inflammatory cytokine, potent chemoattractant for neutrophils; recombinant human IL-8 from Genzyme”, in experiment [1], the “rank order of potency for activating calcium flux” value is on record as “IL-8>gro>NAP-2”. Also, the concentration for a half-maximal effect (EC50) in experiment [1] (Xenopus oocytes injected with p2 cRNA, FIG. 2A, read-out: EC50 of intracellular calcium mobilization) came out at 20 nM. The “EC50 in oocytes relative to value reported for human neutrophils” value in experiment [1] (oocyte EC50 higher than that reported for human neutrophils with recombinant human IL-8) is “approximately 20 fold”. The molecule further showed a Kd in experiment [3] of 2 nM.
For the molecule “recombinant human IL-8 (from UniProt P10145) (ligand)”, the calcium efflux (mobilization of intracellular calcium), EC50 in experiment [4] came out at 20 nM.
Take “gro: member of the macrophage inflammatory protein-2 (MIP-2) family of cytokines, structurally related to IL-8”: in experiment [1], the “rank order of potency for activating calcium flux” value is “IL-8>gro>NAP-2”. The same molecule showed a Kd in experiment [3] of 1.3 nM.

B1: C5a: structurally unrelated chemoattractant, 74 amino acids; recombinant human C5a from Sigma (protein)
chain: TLQKKIEEIAAKYKHSVVKKCCYDGACVNNDETCEQRAARISLGPRCIKAFTECCVVASQLRANISHKDMQLGR
Turning to B1, the “calcium mobilization / activation of the IL-8 receptor (result in words)” value in experiment [1] (setting [9]) is “did not activate”. Moreover, the “displacement of [125I]-IL-8” value in experiment [5] was “did not displace”. For the same molecule, the “calcium efflux response (percent of loaded 45Ca2+ released)” value in experiment [2] (500 nM ligand) is given as 16±5%.

B2: NAP-2: member of the MIP-2 family of cytokines; recombinant human NAP-2 from Bachem (protein)
chain: AELRCMCIKTTSGIHPKNIQSLEVIGKGTHCNQVEVIATLKDGRKICLDPDAPRIKKIVQKKLAGDESAD
For B2, in experiment [1], the “rank order of potency for activating calcium flux” value is on record as “IL-8>gro>NAP-2”.

B3: human interleukin-8 receptor encoded by cDNA clone p2 (receptor)
chain: MESDSFEDFWKGEDLSNYSYSSTLPPFLLDAAPCEPESLEINKYFVVIIYALVFLLSLLGNSLVMLVILYSRVGRSVTDVYLLNLALADLLFALTLPIWAASKVNGWIFGTFLCKVVSLLKEVNFYSGILLLACISVDRYLAIVHATRTLTQKRYLVKFICLSIWGLSLLLALPVLLFRRTVYSSNVSPACYEDMGNNTANWRMLLRILPQSFGFIVPLLIMLFCYGFTLRTLFKAHMGQKHRAMRVIFAVVLIFLLCWLPYNLVLLADTLMRTQVIQETCERRNHIDRALDATEILGILHSCLNPLIYAFIGQKFRHGLLKILAIHGLISKDSLPKDSRPSFVGSSSGHTSTTL
For the molecule B3, the binding result in experiment [6] was “no binding (tested: 1 µM)”. Further, the figures for the Kd in experiment [7] and in experiment [8] were 1.3 nM and 2 nM, respectively.
